According to publication doi:10.1101/2021.03.08.434320:

Target: H3K9me2 peptide (ITC)
Assay: ITC

Substance: Arabidopsis thaliana AGDP3 AGD1-4 (1-290) (domain or fragment)
- fold decrease of binding in pH 6.0 against pH 7.5: 5 fold
- stoichiometry N: 1
